Experimental data reported in article PMC5461540 (2017).
Where two headings read alike, the source gives them in different places. Where no end group is shown, it is not given here. [ ]: non-standard residue; d: D form. pS = N[C@@H](COP(=O)(O)O)C(=O)O

B1: MOB1A wild-type (natural protein)
chain: SFLFSSRSSKTFKPKKNIPEGSHQYELLKHAEATLGSGNLRQAVMLPEGEDLNEWIAVNTVDFFNQINMLYGTITEFCTEASCPVMSAGPRYEYHWADGTNIKKPIKCSAPKYIDYLMTWVQDQLDDETLFPSKIGVPFPKNFMSVAKTILKRLFRVYAHIYHQHFDSVMQLQEEAHLNTSFKHFIFFVQEFNLIDRRELAPLQELIEKLGSKDR

Legend:
[1] = target: T1, FITC labeled MST1 pT329 phosphopeptide (human, UniProt Q13043, phosphothreonine at 329; FITC label (position not given)); assay: FP
[2] = target: T2, FITC labeled MST1 pT340 phosphopeptide (human, UniProt Q13043, phosphothreonine at 340; FITC label (position not given)); assay: FP
MST1 pT380/pT387 peptide = assay: FP; doubly phosphorylated pT380/pT387
MST1 pT329/pT340 peptide = assay: FP; doubly phosphorylated pT329/pT340
[3] = target: T1, FITC labeled MST1 pT329 phosphopeptide; assay: FP; remark: listed apart in the source
[4] = target: T2, FITC labeled MST1 pT340 phosphopeptide; assay: FP; remark: listed apart in the source
[5] = target: T3, FITC labeled MST1 pT380 phosphopeptide (human, UniProt Q13043, phosphothreonine at 380; FITC label (position not given)); assay: FP
T3 sequence (Q13043 whole entry, looked up): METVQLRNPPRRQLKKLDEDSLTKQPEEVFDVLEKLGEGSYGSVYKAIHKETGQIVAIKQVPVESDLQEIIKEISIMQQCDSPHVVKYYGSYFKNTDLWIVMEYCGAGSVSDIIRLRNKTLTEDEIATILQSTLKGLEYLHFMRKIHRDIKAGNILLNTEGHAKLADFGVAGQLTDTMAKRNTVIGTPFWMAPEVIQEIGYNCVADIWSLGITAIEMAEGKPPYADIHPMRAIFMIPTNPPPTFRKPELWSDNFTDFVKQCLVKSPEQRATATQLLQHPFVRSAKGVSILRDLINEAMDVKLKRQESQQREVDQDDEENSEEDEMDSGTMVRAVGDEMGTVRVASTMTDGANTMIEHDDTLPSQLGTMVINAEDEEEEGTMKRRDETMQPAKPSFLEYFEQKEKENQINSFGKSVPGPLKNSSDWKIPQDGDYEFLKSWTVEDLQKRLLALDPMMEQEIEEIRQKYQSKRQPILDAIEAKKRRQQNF

[6] = target: T3, FITC labeled MST1 pT380 phosphopeptide; assay: FP; remark: listed apart in the source
MOB1A wild-type [7] = target: B1; assay: FP
yeast Mob1 [8] = target: T4, yeast Mob1 (yeast, UniProt P40484 79-314); assay: FP
T4 chain: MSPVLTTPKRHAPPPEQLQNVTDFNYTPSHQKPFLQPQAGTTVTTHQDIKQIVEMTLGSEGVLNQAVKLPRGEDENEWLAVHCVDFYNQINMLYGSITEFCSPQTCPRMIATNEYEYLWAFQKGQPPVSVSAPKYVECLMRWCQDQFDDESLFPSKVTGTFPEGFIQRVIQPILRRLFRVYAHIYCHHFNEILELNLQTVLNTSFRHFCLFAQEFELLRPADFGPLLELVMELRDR

MOB1A wild-type [9] = target: B1; assay: FP
MOB3C = target: T5, MOB3C (human, UniProt Q70IA8 2-216); assay: FP
T5 chain: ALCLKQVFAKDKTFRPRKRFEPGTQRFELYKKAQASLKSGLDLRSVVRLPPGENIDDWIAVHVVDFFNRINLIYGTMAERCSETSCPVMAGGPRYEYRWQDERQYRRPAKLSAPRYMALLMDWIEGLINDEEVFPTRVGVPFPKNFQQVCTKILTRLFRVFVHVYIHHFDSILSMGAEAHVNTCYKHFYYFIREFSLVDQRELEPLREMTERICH

yeast Mob1 [10] = target: T4, yeast Mob1; assay: FP
MOB3A = target: T6, MOB3A (human, UniProt Q96BX8 2-217); assay: FP
T6 chain: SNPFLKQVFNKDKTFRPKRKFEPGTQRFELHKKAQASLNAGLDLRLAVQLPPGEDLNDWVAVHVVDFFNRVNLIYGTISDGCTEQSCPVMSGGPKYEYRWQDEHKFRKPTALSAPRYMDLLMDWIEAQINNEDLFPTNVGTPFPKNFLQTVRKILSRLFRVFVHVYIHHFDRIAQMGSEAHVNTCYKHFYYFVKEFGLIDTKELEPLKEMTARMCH

MOB1B (tags cleaved) = target: T7, MOB1B (tags cleaved) (human, UniProt Q7L9L4-2 2-216); assay: FP
T7 chain: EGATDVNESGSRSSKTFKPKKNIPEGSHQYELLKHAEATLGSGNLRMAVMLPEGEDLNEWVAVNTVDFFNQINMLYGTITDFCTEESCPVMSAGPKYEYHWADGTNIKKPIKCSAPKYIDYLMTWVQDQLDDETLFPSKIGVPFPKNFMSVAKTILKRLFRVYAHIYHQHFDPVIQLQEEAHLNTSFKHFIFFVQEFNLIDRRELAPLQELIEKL

MOB3B = target: T8, MOB3B (human, UniProt Q86TA1 2-216); assay: FP
T8 chain: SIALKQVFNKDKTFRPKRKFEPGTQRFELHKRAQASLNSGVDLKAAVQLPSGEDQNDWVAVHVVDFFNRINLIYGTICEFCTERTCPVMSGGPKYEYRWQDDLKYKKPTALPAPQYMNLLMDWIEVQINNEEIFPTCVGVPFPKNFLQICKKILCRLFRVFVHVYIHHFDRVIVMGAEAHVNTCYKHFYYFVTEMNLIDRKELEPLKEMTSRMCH

Binder: B1
- Kd [1]: 47 µM
- Kd [2]: 66 µM
- Kd (MST1 pT380/pT387 peptide): 95 µM
- Kd (MST1 pT329/pT340 peptide): 49 µM
- Kd [3]: 46.5 µM
- Kd [4]: 66.1 µM
- Kd [5]: 185 µM
- Kd [6]: 186 µM

B2: FITC labeled phosphorylated MST1 T353 peptide (peptide)
chain: VASTMTDGANTMIEH
modifications: also: phosphothreonine at 353 (place in peptide not given here), FITC label, position not given here
- Kd (MOB1A wild-type [7]): 0.31 µM

B3: FITC labeled phosphorylated MST1 T367 peptide (peptide)
chain: DDTLPSQLGTMVINA
modifications: also: phosphothreonine at 367 (place in peptide not given here), FITC label, position not given here
- Kd (yeast Mob1 [8]): 29 µM
- Kd (MOB1A wild-type [9]): 0.8 µM
- Kd (MOB3C): 2.3 µM
- Kd (yeast Mob1 [10]): 29.3 µM
- Kd (MOB3A): 2.9 µM
- Kd (MOB1B (tags cleaved)): 0.78 µM
- Kd (MOB3B): 2.6 µM
- Kd (MOB1A wild-type [7]): 0.58 µM

B4: optimized Nud1-like phosphoserine containing peptide (FITC labeled) (peptide)
chain: YH[pS]VVRYA
modifications: also: FITC label, position not given here
- Kd (yeast Mob1 [8]): 0.4 µM
- Kd (MOB1A wild-type [9]): 30 µM
